Data reported in patent US20230192818A1 (TWIST BIOSCIENCE, published 2023).
Where two headings read alike, the source gives them in different places.

B1: 3-31 (Fc fusion)
chain: EVQLVESGGGLVQPGGSLRLSCAASGSTFSINAMGWFRQAPGKEREFVAGITSSGGYTNYADSVKGRFTISADNSKNTAYLQMNSLKPEDTAVYYCAADGVPEYSDYASGPVWGQGTLVTVSS
notes: also called Antibody 3-31
B2: 15-3 (Fc fusion)
chain: EVQLVESGGGLVQPGGSLRLSCAASGFTFSPSWMGWFRQAPGKEREFVATINEYGGRNYADSVKGRFTISADNSKNTAYLQMNSLKPEDTAVYYCARVDRDFDYWGQGTLVTVSS
notes: also called Antibody 15-3; Antibody 15 parent

How the values were obtained:
SARS-CoV-2 S1 (Acro) [1] = biological target: T1, SARS-CoV-2 S1 (Acro) (SARS-CoV-2, UniProt P0DTC2 16-685); assay: SPR (Carterra)
T1 construct: also called Acro S1

SARS-CoV-2 S1 (Acro) [2] = biological target: T1, SARS-CoV-2 S1 (Acro); assay: SPR (Carterra); remark: listed apart in the source

| Binder | Kd (SARS-CoV-2 S1 (Acro) [1]) [nM] | Kd (SARS-CoV-2 S1 (Acro) [2]) [nM] |
| --- | --- | --- |
| B1 | 21 | 21 |
| B2 | – | 31.5 |
